Results on one variant are retold here after paper PMC7078472.

First the molecules themselves.
B1: unnamed (parent)
chain 1: VHQRIASWQNLGAVYCSTVVPSDDVTVVYQNGLPVISVRLPSRRERCQFTLKPISDSVGVFLRQLQEEDRGIDRVAIYSPDGVRVAASTGIDLLLLDDFKLVINDLTYHVRPPKRDLLSHENAATLNDVKTLVQQLYTTLCIEQHQLNKERELIERLEDLKEQLAPLEKVRIEISRKAEKRTTLVLWGGLAYMATQFGILARLTWWEYSWDIMEPVTYFITYGSAMAMYAYFVMTRQEYVYPEARDRQYLLFFHKGAKKSRFDLEKYNQLKDAIAQAEMDLKRLRDPLQVHLPLRQIGEKD
chain 2: DIDTAAKFIGAGAATVGVAGSGAGIGTVFGSLIIGYARNPSLKQQLFSYAILGFALSEAMGLFCLMVAFLILFAM

Variants of B1 are the subject of this test. The experiment in a line: MYTH (membrane yeast two-hybrid) quantitative β-Gal activity assay. As to conditions: with partner chain of the complex shown; yeast strain NMY51; n = 3; 6 colonies for each independent experiment; read off a plot.
With chain 1 Q196A I199P L200P W205A, the response was found to be 26 units.
